Measurements: CN114423789A (ZHEJIANG JIANMAI PHARMACEUTICAL CO LTD, dated 2022)

Experiments:
[1] = target: T1, recombinant human mesothelin (full-length extracellular domain) (human, UniProt Q13421 296-580, limits assumed); assay: ELISA, recombinant human mesothelin coated at 50 ng/well, Fab detected with HRP anti-FLAG
T1 construct: extracellular domain; Bought protein coated on ELISA plates at 50 ng per well; also called 重组人间皮素; 人间皮素(MSLN)蛋白

[2] = target: T1, recombinant human mesothelin …; assay: ELISA, recombinant human mesothelin coated at 50 ng/well, fit to a Langmuir isotherm

T1 sequence (Q13421 other isoform, or with tags, fused parts or gaps limits assumed): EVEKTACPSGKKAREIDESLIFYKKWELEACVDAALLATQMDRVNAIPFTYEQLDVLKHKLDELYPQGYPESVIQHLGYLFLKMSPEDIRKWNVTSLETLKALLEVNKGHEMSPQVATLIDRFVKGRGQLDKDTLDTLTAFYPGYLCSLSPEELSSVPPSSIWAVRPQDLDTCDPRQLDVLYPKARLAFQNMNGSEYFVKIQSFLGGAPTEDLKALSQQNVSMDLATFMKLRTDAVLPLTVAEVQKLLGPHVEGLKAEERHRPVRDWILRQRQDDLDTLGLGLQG

| Binder | EC50 [1] | EC50 [2] |
| --- | --- | --- |
| M10 Fab (Fab, V domains shown, also called Fab克隆M10) VH: QLVETGGGLVQPGRSLRLSCAASGFTFDDYAMHWVRQAPGKGLEWVSGISWNSGSIGYADSVKGRFTISRDNAKNSLYLQMNSLRAEDTAVYYCARDSGSSGWYGYFQHWGQGTLVTVSS VL: SYVLTQPPSVSVSPGQTARITCSGDALPKQYAFWYQQKPGQAPVLVIYKDSERPSGIPERFSGSSSGTTVTLTISGVQAEDEADYYCQSADSSATSVIFGGGTKLTVLG | 21 nM |  |
| M10 mAb (anti-human mesothelin monoclonal antibody IgG1) (antibody, V domains shown, Full human IgG1: the heavy-chain Fd of M10 Fab fused to human IgG1 Fc, about 150 kDa non-reduced; also called 抗间皮素M10 mAb; 抗间皮素单克隆抗体) VH: QLVETGGGLVQPGRSLRLSCAASGFTFDDYAMHWVRQAPGKGLEWVSGISWNSGSIGYADSVKGRFTISRDNAKNSLYLQMNSLRAEDTAVYYCARDSGSSGWYGYFQHWGQGTLVTVSS VL: SYVLTQPPSVSVSPGQTARITCSGDALPKQYAFWYQQKPGQAPVLVIYKDSERPSGIPERFSGSSSGTTVTLTISGVQAEDEADYYCQSADSSATSVIFGGGTKLTVLG |  | 0.2 nM |
